Consider 19 sequences from the DeepSol protein solubility set.

The nature of this series: soluble on expression in E. coli; label from the status in PepcDB or PDB records.
As to “MAHHHHHHMADLRDELDATALFGSGYVCIVGPPSSGKTTLILEYLVARERQAVHSGDGDAAAFCMEYVSARSAPHELLRHLTYRLLPHARRRRLSYECTPLEFSASLVEWVEAHPGQSELHLVVDDADALEYSAEEMNLWLSHYLRAPAEQRCTVILWLISELPLRLSNCFRYHFIARPEANSIVQWLHHQFEEERRLLAGLESEEDDSEHTVNGAPMTTLSADEVNRVVLDAFTYYATHQPMCSSVVSRDVRLLVQRVYQILPPLLLEVAATTSAVPGESGEAAVSASTTADAVKKLNARHFAAAWSQYRSDGGGGTSSAMAVSGAAASAQNTLVMALKRLGYSAVLLAFAAFYGGAVPKRQQHQVFGRIGSGERQPPLHEAKGQSHKAAVLTASAHVVTLRRLGFLYDAMLRMCTPHIDPLEFTTADVALQYVQGFVAWGLLTPVVSQRHRSYHCWIPVSTAPAVGA”, the “soluble on expression in E. coli” value is on record as “not soluble”.
Turning to “MHSQFGKHKSDISLLTPAPPSPKAFGLLYAAHWLGSTDPEIWERLETLANENQCLIDLRDEKVPGTYETQLFVIGYAGNIVTVLKQLQDYIDEPNNFDRFDIDRRPRKETLKMCVPTDMFLSKFGVGLVAEGRITHYEQNRGVTIKTYAISQSQHVISVYSNENNHQLPLHDLVEYFAYPSQCYEKSFAQKIPYLVDNKSGLLNRFKDISKLDVIKTPRDQLWLMALDGMKTVDARESILQALRENPDSASLYVRACKLEHLPSCKMEWLLHALQRDTLDDKMKIIKHAETYFRGPAILQILESAVLSLSNDIHIVRELAIAHEKSGNFEKSMQFLKDCIDNNSWNSTELTASMIHCEHAGANRTSKVYLEAMYSIFNFTTSEEAALIEIVKVLVETDSPLSAKSLSLELMTRYAGTPTFEKTRQLFHSLFYTTCSKSDSERYDDTFIKHMAKWNKKQQEQQK”, the “soluble on expression in E. coli” value is on record as “not soluble”.
On to “AQAVKEAASSDKPLIVAVTACTTGIAHIYMAEESLIKTGEKMSVNVRVETNGASGVGTPMTAEEINKAVGVIIAADKAVETACFNGKN”, for which the “soluble on expression in E. coli” value is “not soluble”.
Regarding “GMSADIVFDRGSPSDIDEIKTFTSNTWKVGYYTDLYSKLADTGTMDDYVDKVIERWVNDGSVYVLRVSGRPVATIHMEKLPDGSVMLGGLRVHPEYRGSRLGMSIMQETIQFLRGKTERLRSAVYSWNEPSLRLVHRLGFHQVEEYPIYTFQGGSTAVPALKPVNERYAGRWRCFFIDWKYMCSDDPDIIHEEYSNNLIVDGSTFVYFDIYEGGIDLFVNDSDDASSFIEKYRSMNGRITFYVRKALANGLPYVPASSLTVWEYRY”, the “soluble on expression in E. coli” value is recorded as “soluble”.
Regarding “MEFINNITIRARVAFYLAVAQKAFEGLSENDQGYLQADEALKQCWNWLKGKNISGDELCEYLENERDTGLMVYSSFVQGDPVKEPIWITIITALMYTIWQAYQIENEKYLPESIEQVDEGTIDILIEYAKKCANYDEHWIKLLENYLLEKYRTTNMNEVGIAILKDEIMGIR”, the “soluble on expression in E. coli” value is given as “soluble”.
As to “MSLFTCEDPAVWKAVHNKYWTVVEAKSAGKRKTSGKLLQLDKWFQEDLPAAITARPERFLTHAELVKIMEWKLTKGKFRPRLQQLIGSNNEEAVQSSSSKAFSLLPDVQAAIKELCKLKGVGSATASAVLVAGAPDKVAFMADEAVESIAELRPVEYTDKHYALYLQKMLWKTSELNKVDAQQDWTPHRVEQCLWTWTVANQIQPSLLQGVSLKDATNQKPEKRKTADEKPSKRKKTE”, the “soluble on expression in E. coli” value is “not soluble”.
To “MHSLTSRAPAEPDERLQALKRLIGKVTPQIGLNDVCKTSIPDLTFYRMDKLATPTYCIYEPCVAIILQGAKEITFGEQACEFAQGSFFVTSVDIPTLARVTAASEQTPYLSIVLKLDLSMLNDVIQTQAPLKQEATPEARGFASGMASSEMLDAFARLSALTGQPLEAGLMSDLIKREICVRLLLSCAGQWLRSVTRDGYRDKGIVRAIEWLKLHYDEPLHVAQLAQLSGMASSTLHHNFRKLTGTSPVQYQKSLRLQAARSLMLTERVDVNTAALRVGYESVAQFSREYARRFGAPPSRDIKYAREAGGRRD” belongs “not soluble”; to “PAAGPSRVRQNFHPDSEAAINRQINLELYASYVYLSMAYYFSRDDVALNNFSRYFLHQSREETEHAEKLMRLQNQRGGRIRLQDIKKPEQDDWESGLHAMECALLLEKNVNQSLLELHALASDKGDPHLCDFLETYYLNEQVKSIKELGDHVHNLVKMGAPDAGLAEYLFDTHTLGNENKQN”, “soluble”.
As for “LDIQMTQSPSSLSASLGERVSLTCRASQEISGYLYWLQQKPDGTIKRLIYAGSTLDSGVPKRFSGSRSGSDYSLTISSLESEDFADYYCLQYASYPRTFGGGTKVEIKRTVAAPSVFIFPPSDEQLKSGTASVVCLLNNFYPREAKVQWKVDNALQSGNSQESVTEQDSKDSTYSLSSTLTLSKADYEKHKVYACEVTHQGLSSPVTKSFNRGECGAGA”, the “soluble on expression in E. coli” value is “soluble”.
On to “MKMATDDHQPPMVRGRRIKLKYAHAGGYNPPIVVIHGNMVRELPDSYKRYLMNYFRKSLEIMGTPIRINFQNSENPFENRANKLTLSQERKRKRMMSVVKNRKK”, for which the “soluble on expression in E. coli” value is reported as “not soluble”.
With “MWRVVFDCEEAVRWLRQAKHTLESIRVDYEGGFYSWACFKANQAAEYSIKAVLRAAGLESFGHDLMALWRRARSLCQPLQEMEECIAVLNKLYLPPRYPDAWPGGAAPFENYTRRDAEEALECASRVYRAVEECLGEECEDS”, the “soluble on expression in E. coli” value is recorded as “soluble”.
Next, “MNRTAMRASQKDFENSMNQVKLLKKDPGNEVKLKLYALYKQATEGPCNMPKPGVFDLINKAKWDAWNALGSLPKEAARQNYVDLVSSLSPSLESSSQVEPGTD”: “soluble”; “APSYPEYTREEVGRHRSPEERVWVTHGTDVFDVTDFVELHPGGPDKILLAAGGALEPFWALYAVHGEPHVLELLQQYKVGELSPDEAPAAPDAQDPFAGDPPRHPGLRVNSQKPFNAEPPAELLAERFLTPNELFFTRNHLPVPAVEPSSYRLRVDGPGGGTLSLSLAELRSRFPKHEVTATLQCAGNRRSEMSRVRPVKGLPWDIGAISTARWGGARLRDVLLHAGFPEELQGEWHVCFEGLDADPGGAPYGASIPYGRALSPAADVLLAYEMNGTELPRDHGFPVRVVVPGVVGARSVKWLRRVAVSPDESPSHWQQNDFKGFSPCVDWDTVDYRTAPAIQELPVQSAVTQPRPGAAVPPGELTVKGYAWSGGGREVVRVDVSLDGGRTWKVARLMGDKAPPGRAWAWALWELTVPVEAGTELEIVCKAVDSSYNVQPDSVAPIWNLRGVLSTAWHRVRVSVQD”: “soluble”.
In the case of “MPNKNGVGKKSPSTSKSSNNNKRREPEFRYEEKTAVHGGKTKYEEKTVVHGGKTKNVVAKKVPSKASVIVDKKASTTETTVPITVKKSLLSISTAYDRTVTEEKEKEKPKKKEKEKWSGEEASIKFVKSLGSINLKDEYDEIQKLPVQTERCKMWQSHSSRNRHNDSKCYDHNRIIVQMCKDDYINGSKINVPHFTPSIYLVQLPKMDSVDAVEEFWRVVFHEQCQTVHIIARPEELTNPAIDKLFCQESGAWLYANGFFVNTRKVEKKENAKADMFVVELLPEGCSNAVMCSVYLHTYWKPLFGPDRFGAQIRAAHQIAKNENGNSPTVIASVNGSGRNAALLTLAVVEDQLTRGKEPKISEIVRTIREQRPQSVDSYIQYVSLYMATNWLIKTKLPSGHEVVSKIKKFNEKATRSLPGSMMKTPTEEL”, the “soluble on expression in E. coli” value is given as “not soluble”.
As to “TRTEISPGKAPFTIEHNQTVVTIGSCFSDMIGEKLQYYKFDVLANPFGTTFNPISIFQLLTIAIEKKFNPFPASLGEIWYDHQFHSEVSALSAEALHELTNERIAAATKSLARASCLVITLGSAWVYRHVETNTIVNNCHKQSGRYFKKELLSVKHILEDFETVYAKLKELNPSIKIIFTVSPVRHIKDTLQLNSVSKAILLSSVHYMCEQHTDCHYFPSYEIQMDDLRDYRYYAEDLIHPSKQAEKYIWKKLSNWVFSSDLLAALEEWDQLQKLLHHKAF”, the “soluble on expression in E. coli” value is listed as “not soluble”.
With “MGSDKIHHHHHHPNDPIIYKKEGGAFLWLGDTAWELFHVLDKEEIVHYLDNRQEKGFTVIQAVILSELDGLDKPNAYGYLPLVDKDPTQITEGYFELVDFVIREAGKRGMYIGLLPTWANNVVEKDGNPALFNPDNAYTYGKILGTRYKNEAVIWILGGDRNVVTDKEFEIWQSMAKGIQEGNGGTQLMSYHPTGEISSHYWFHNESWLSFNILQSGHYRRMDPVYRFSGMYAQLNPIKPFVNAEPSYEDIPVLFWEYFDYAKFGKKKEDIIGDNGLIKDTTYFTDGIYDDYDIRMQAYWTYFSGAAGYTYGNNAIWQMYKPGGKYHVPCLTFWDGALDRPGAECMRYVKSLFTMYPLDRFRPDLSVLFGINYNDASYITPVLAKDKTFILVYLSQGQDVRIQMSKLRSLGKAYWFNPRNGARTLIGPVENKGIRTFNAPGEAGERGNDWILILEADDR”, the “soluble on expression in E. coli” value was “not soluble”.
For “MSLDQFDCKVSATGGWDCSPLQNANANLPPRPAHTATSVSTAAAGSSVSGSGGETVEAEPTQRLVTESGGRALKSRSADYSHLDWIPREKLTAAQLAEIGPYCGGSYIEPVRPGMDDGAPSDESPTYVSAKASRYEQEKQIATLAGDVVLRQGSMQVEGDEANLHQLENRGELVGNVKLRDKGMLVVGDHAQVQLDNGEAQVDNAEYVIHKAHARGSALYAKRSENAIIMLKDGTYTRCEPSSNAWTLKGNNVKLNPATGFGTATNATLRVKDFPVFYTPYIYFPIDDRRQSGFLPPSFSSTSDTGFTLVTPYYFNLAPNYDATLYPRYMAKRGMMLEGEFRYLTHSSEGIVNAAYLNDKDDHREGFPDYSKDRWLYGLKNTTGLDSRWLAEVDYTRISDPYYFQDLDTDLGVGSTTYVNQRGTLTYRGDTFTGRLNAQAYQLATTTDVTPYDRLPQITFDGFLPYNPGGMQFTYGTEFVRFDRDLDENIYFNDDGSIRGKRPDASLQGLARATGDRMHLEPGMSLPMTRSWGYVTPTLKYLYTKYDLDLDSQGKTDLNKRDESFDSNQDRSLPLVKVDSGLYFDRDTTFAGTPFRQTLEPRAMYLYVPYKDQDSLPVFDTSEPSFSYDSLWRENRFTGKDRIGDANQLSLGVTSRFIEENGFERASISAGQIYYFRDRRVQLPGLTEKDLKRLNLDPSGLDNDSWRSPYAFAGQYRFNRDWRINSDFNWNPNTSRTESGSAIFHYQPEVDPGKVVNVGYRYRADARRFDSSRGTFRYGNENDIIKQHDFSVIWPLVPQWSVLARWQYDYNKNRTLEAFGGFEYDSCCWKLRLINRYWLDVDDDAFLVQSEKADRGIFLQIVLKGLGGIVGNKTEMFLDKGIQGYRQREEGHHHHHH”, the “soluble on expression in E. coli” value is reported as “not soluble”.
To “MLNEGAKNTEKQKVMEIITVAEPMSESELESIRNFLFRIIRREFGFGYIPEYHRDIINLEEYYLKPPRNIFLFASQGGRVIGTLGLRAYDREFEGLNYDPETTASLWRVFVDEDHRRMGVASRLVEIAEKEAASLGYQRIYLHTHKYVGGALEFWLSRGYRVTVDTGNELGTVHMEKTLSCNSNAITRIPEKTSELSHSLPRTQKV” belongs “soluble”.
For the sequence “MGLISAAVGAVGGGLADQWLEVIEAGDMGEGIVLAKGVAVRTDKRNTNKKGSSDVVSNGSIIHVNQNQFMMLVDGGKIVDYTAEPGYFKVENSASPSLFGGQFGDALKETFSRFKFGGTTPMKQEVFYVNLQEIKGIKFGTPNPLQYFDNFYNAELFLRTFGNYSIKITDPIKFFKEACPRDAENVHIDEINEQYLSEFLEALQAAISQMSMEGERISFIPSKGTVLSKHMSEILDDSWKELRGMEVLSVGIASISYDDESKELINMRNKGAMLGDPGVREGYVQGSIARGMEAAGSNQAGAGMAFMGMGMGMNAAGGFMGQASQTNMQQMQMNQAAQRAAQGAGQQQGAGAKAAGEWFCTECGHKNTGKFCAECGTPKPQGLEHHHHHH”, the “soluble on expression in E. coli” value is “soluble”.
